Test results: patent US20190077860A1 (EISAI R AND D MANAGEMENT, published 2019)
One block for each binder: values may come before it.

Legend:
[1] = molecular target: T1, human EphA4 extracellular region-SEAP-His protein (human, UniProt P54764 20-547); assay: competition ELISA: human EphA4 extracellular region-SEAP-His captured on the plate, blocked ligand biotinylated human Ephrin B3-Fc chimera (2.3 nM)
T1 construct: also called hEphA4-SEAP-His
Experimental: (§1) Antibody A obtained in Example 1 was evaluated for its inhibitory activity against the binding between human EphA4 and its human ligand according to the following steps. Each well of a 96-well plate (Nunc) was coated with an anti-alkaline phosphatase antibody (Thermo Fisher Scientific). After incubation overnight at 4° C., each well was blocked with 1% BlockAce (DS Pharma Biomedical) at room temperature for 1 hour. After washing with 0.05% Tween 20/PBS (Thermo Fisher Scientific) three times, the human EphA4 extracellular region-SEAP-His protein obtained by the method of Example 1 was added (final concentration: 10 nM) to each well and incubated at room temperature for 1 hour. After washing three times, ligands and serially diluted antibody A (0, 0.003, 0.01, 0.03, 0.1, 0.3, 1, 3, 10, 30, 100, 300, 1000, and 3000 nM) or an EphA4 inhibitor KYL peptide ([…], 0, 0.003, 0.01, 0.03, 0.1, 0.3, 1, 3, 10, 30, 100, 300, 1000, and 3000 μM, its synthesis was outsourced to Toray Research Center) were added to each well. The ligands used were biotinylated human Ephrin A5-Fc chimera (R&D Systems, final concentration: 0.7 nM) and biotinylated human Ephrin B3-Fc chimera (R&D Systems, final concentration: 2.3 nM). […] The absorbance at 450 nm was read using a microplate reader (Molecular Devices or PerkinElmer). […]

[2] = molecular target: T2, mouse EphA4 extracellular region-SEAP-His protein (mouse); assay: competition ELISA, competitor mouse Ephrin B2-Fc
Experimental: (§2) Antibody A obtained in Example 1 was evaluated for its inhibitory activity against the binding between mouse EphA4 and its mouse ligand according to the following steps. Each well of a 96-well plate (Nunc) was coated with an anti-alkaline phosphatase antibody (Thermo Fisher Scientific). After incubation overnight at 4° C., each well was blocked with 1% BlockAce (DS Pharma Biomedical) at room temperature for 1 hour. After washing with 0.05% Tween 20/PBS (Thermo Fisher Scientific) three times, the mouse EphA4 extracellular region-SEAP-His protein obtained by the method of Example 1 was added (final concentration: 10 nM) to each well and incubated at room temperature for 1 hour. After washing three times, ligands and serially diluted antibody A (0, 0.001, 0.003, 0.01, 0.03, 0.1, 0.3, 1,3, 10, 30, 100, 300, and 1000 nM) or a known EphA4 inhibitor KYL peptide ([…], 0, 0.003, 0.01, 0.03, 0.1, 0.3, 1, 3, 10, 30, and 100 μM, its synthesis was outsourced to Hokkaido System Science) or compound 1 (0, 0.03, 0.1, 0.3, 1,3, 10, 30, 100, 300, and 1000 μM, Formula 1, Matrix Scientific) were added to each well. The ligands used were mouse Ephrin A1-Fc chimera (R&D Systems, final concentration: 20 nM) and mouse Ephrin B2-Fc chimera (R&D Systems, final concentration: 0.6 nM). […] The absorbance at 450 nm was read using a microplate reader (Molecular Devices).

[3] = molecular target: T1, human EphA4 extracellular …; assay: competition ELISA: human EphA4 extracellular region-SEAP-His captured on the plate, blocked ligand biotinylated human Ephrin A5-Fc chimera (0.7 nM)
Experimental: as §1

[4] = molecular target: rat EphA4 in rat hippocampal neurons (rat, UniProt D3ZZK3 20-986); assay: cell-based or functional assay
[5] = molecular target: T1, human EphA4 extracellular …; assay: competition ELISA, competitor human Ephrin B3-Fc
Experimental: as §1

[6] = molecular target: T1, human EphA4 extracellular …; assay: competition ELISA, competitor human Ephrin A5-Fc
Experimental: as §1

[7] = molecular target: T2, mouse EphA4 extracellular …; assay: competition ELISA: mouse EphA4 extracellular region-SEAP-His captured on the plate, blocked ligand mouse Ephrin A1-Fc chimera (20 nM)
Experimental: as §2

[8] = molecular target: T2, mouse EphA4 extracellular …; assay: competition ELISA, competitor biotinylated mouse Ephrin B2-Fc
Experimental: Antibody A-Fab and antibody A-F(ab′)₂ obtained in Example 5 were evaluated for their inhibitory activity against the binding between EphA4 and its ligand according to the following steps. Each well of a 96-well plate (Nunc) was coated with an anti-alkaline phosphatase antibody (Thermo Fisher Scientific). After incubation overnight at 4° C., each well was blocked with 1% BlockAce (DS Pharma Biomedical) at room temperature for 1 hour. After washing with 0.05% Tween 20/PBS (Thermo Fisher Scientific) three times, the mouse EphA4 extracellular region-SEAP-His protein obtained by the method of Example 1 was added (final concentration: 10 nM) to each well and incubated at room temperature for 1 hour. After washing three times, a ligand and serially diluted antibody A (0, 0.003, 0.01, 0.03, 0.1, 0.3, 1, 3, 10, 30, 100, 300, 1000, and 3000 nM), antibody A-Fab (0, 0.003, 0.01, 0.03, 0.1, 0.3, 1, 3, 10, 30, 100, 300, 1000, and 3000 nM), antibody A-F(ab′)₂ (0, 0.003, 0.01, 0.03, 0.1, 0.3, 1, 3, 10, 30, 100, 300, 1000, and 3000 nM), or the EphA4 inhibitor KYL peptide ([…], 0, 0.0003, 0.001, 0.003, 0.01, 0.03, 0.1, 0.3, 1, 3, 10, 30, 100, 300, 1000, and 3000 μM, its synthesis was outsourced to Toray Research Center) were added to each well. The ligand used was biotinylated mouse Ephrin B2-Fc chimera (R&D Systems, final concentration: 2.5 nM). After incubation at room temperature for 1 hour and subsequent washing three times, horseradish peroxidase-labeled streptavidin (GE Healthcare) was added thereto and incubated at room temperature for 1 hour. After washing three times, a TMBZ (3,3′,5,5′-tetramethylbenzidine, Sigma-Aldrich) solution was added to each well and incubated at room temperature for 2 minutes. An equal amount of a reaction stopping solution (1N H₂SO₄, Wako Pure Chemical Industries) was added to each well. The absorbance at 450 nm was read using a microplate reader (Molecular Devices or PerkinElmer).
Antibody A and antibody A-F(ab′)₂ had 1000 or more times the activity of the KYL peptide, and antibody A-Fab also had 10 or more times the activity of KYL peptide.

[9] = molecular target: T2, mouse EphA4 extracellular …; assay: competition ELISA: mouse EphA4 extracellular region-SEAP-His captured on the plate, blocked ligand mouse Ephrin B2-Fc chimera (0.6 nM)
Experimental: as §2

[10] = molecular target: T2, mouse EphA4 extracellular …; assay: SPR (Biacore T200), EphA4-SEAP-His captured by anti-His antibody; Fab (monovalent), not F(ab')2
Experimental: (§3) Next, the binding affinity of antibody A-Fab and antibody A-F(ab′)₂ for mouse and human EphA4 was determined by surface plasmon resonance (SPR) using Biacore T200 (GE Healthcare). Antibody A obtained in Example 1 was used as a control for the comparison of each fragment. First, an anti-His tag antibody was immobilized on sensor chip CM5. The immobilization of the anti-His tag antibody on sensor chip CM5 was performed by the amine coupling method using N-hydroxysuccinimide (NHS) and N-ethyl-N′-(3-dimethylaminopropyl)carbodiimide hydrochloride (EDC). Ethanolamine was used in blocking (the sensor chip and the reagents for immobilization were all manufactured by GE Healthcare). The antibody was diluted with a buffer solution for immobilization (10 mM sodium acetate, pH 4.5) into 3 μg/mL and immobilized on the sensor chip according to the protocol attached to Biacore T200.
(§4) Mouse or human EphA4 extracellular region-SEAP-His protein was diluted with a running buffer solution HBS-EP (GE Healthcare, BR-1001-88), injected onto a flow cell for 120 seconds, and captured (amount of the protein captured: approximately 10 to 20 RU). Subsequently, antibody A (50, 16.7, 5.6, 1.9, 0.6, and 0 nM), antibody A-Fab (500, 166.7, 55.6, 18.5, 6.2, and 0 nM), or antibody A-F(ab′)₂ (50, 16.7, 5.6, 1.9, 0.6, and 0 nM) serially diluted using HBS-EP was added to the sensor chip for 120 seconds. […]

[11] = molecular target: T1, human EphA4 extracellular …; assay: as above
Experimental: as §3, §4

[12] = molecular target: T1, human EphA4 extracellular …; assay: SPR (Biacore T200), human EphA4 extracellular region-SEAP-His captured on an anti-His antibody CM5 chip, Fab as analyte at 6.2-500 nM, 1:1 fit
Experimental: as §3, §4

[13] = molecular target: T2, mouse EphA4 extracellular …; assay: SPR (Biacore T200), mouse EphA4 extracellular region-SEAP-His captured on an anti-His antibody CM5 chip, Fab as analyte at 6.2-500 nM, 1:1 fit
Experimental: as §3, §4

[14] = molecular target: T1, human EphA4 extracellular …; assay: SPR (Biacore T200), human EphA4 extracellular region-SEAP-His captured on an anti-His antibody CM5 chip, F(ab')2 as analyte at 0.6-50 nM, 1:1 fit
Experimental: as §3, §4

[15] = molecular target: T2, mouse EphA4 extracellular …; assay: SPR (Biacore T200), mouse EphA4 extracellular region-SEAP-His captured on an anti-His antibody CM5 chip, F(ab')2 as analyte at 0.6-50 nM, 1:1 fit
Experimental: as §3, §4

[16] = molecular target: T2, mouse EphA4 extracellular …; assay: SPR (Biacore T200), EphA4-SEAP-His captured by anti-His antibody; F(ab')2 (bivalent), not Fab
Experimental: as §3, §4

[17] = molecular target: T1, human EphA4 extracellular …; assay: as above
Experimental: as §3, §4

T2 sequence (chain, as listed by the source limits assumed): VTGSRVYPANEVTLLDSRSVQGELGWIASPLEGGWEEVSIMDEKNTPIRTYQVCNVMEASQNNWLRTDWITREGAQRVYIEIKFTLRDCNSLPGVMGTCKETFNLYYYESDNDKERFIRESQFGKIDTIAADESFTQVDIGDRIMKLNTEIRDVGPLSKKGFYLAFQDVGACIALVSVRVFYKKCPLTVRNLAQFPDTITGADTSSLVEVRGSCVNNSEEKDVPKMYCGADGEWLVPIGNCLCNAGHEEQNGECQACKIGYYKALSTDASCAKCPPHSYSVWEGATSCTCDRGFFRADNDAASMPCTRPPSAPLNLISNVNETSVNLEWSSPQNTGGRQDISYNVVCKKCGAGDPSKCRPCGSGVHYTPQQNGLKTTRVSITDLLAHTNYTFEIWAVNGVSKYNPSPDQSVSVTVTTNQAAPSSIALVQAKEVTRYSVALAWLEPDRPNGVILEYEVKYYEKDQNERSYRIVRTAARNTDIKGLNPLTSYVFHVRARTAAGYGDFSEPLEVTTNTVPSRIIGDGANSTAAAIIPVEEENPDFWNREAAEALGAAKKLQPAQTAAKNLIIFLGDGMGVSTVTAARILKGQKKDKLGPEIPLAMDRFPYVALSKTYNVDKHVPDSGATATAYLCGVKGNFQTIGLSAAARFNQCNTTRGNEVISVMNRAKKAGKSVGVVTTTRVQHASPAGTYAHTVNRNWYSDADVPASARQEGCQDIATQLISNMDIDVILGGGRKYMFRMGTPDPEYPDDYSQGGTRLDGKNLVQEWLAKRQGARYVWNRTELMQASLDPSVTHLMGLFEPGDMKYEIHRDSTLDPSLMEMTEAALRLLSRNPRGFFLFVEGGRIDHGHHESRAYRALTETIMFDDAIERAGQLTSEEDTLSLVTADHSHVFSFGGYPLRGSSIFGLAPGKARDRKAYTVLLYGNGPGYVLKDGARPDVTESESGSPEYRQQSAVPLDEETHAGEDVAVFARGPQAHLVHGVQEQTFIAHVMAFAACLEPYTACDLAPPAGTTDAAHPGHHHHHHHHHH
T1 sequence (P54764 20-547): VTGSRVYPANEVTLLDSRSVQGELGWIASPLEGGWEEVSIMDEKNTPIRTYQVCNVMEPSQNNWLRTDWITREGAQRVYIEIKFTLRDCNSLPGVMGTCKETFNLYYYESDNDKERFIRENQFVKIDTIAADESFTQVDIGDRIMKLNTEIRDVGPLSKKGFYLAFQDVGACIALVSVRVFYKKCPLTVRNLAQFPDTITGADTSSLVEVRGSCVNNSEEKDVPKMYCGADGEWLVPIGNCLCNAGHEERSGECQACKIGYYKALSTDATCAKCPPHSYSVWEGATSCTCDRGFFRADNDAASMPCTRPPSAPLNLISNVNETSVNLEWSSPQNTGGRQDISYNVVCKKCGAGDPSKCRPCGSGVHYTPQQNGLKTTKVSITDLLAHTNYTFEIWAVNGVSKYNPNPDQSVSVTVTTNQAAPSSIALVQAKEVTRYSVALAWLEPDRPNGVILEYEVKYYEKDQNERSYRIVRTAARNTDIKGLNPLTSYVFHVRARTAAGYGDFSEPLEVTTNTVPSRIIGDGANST

IC50 [1]: 1570 nM
IC50 [2]: ~1300 nM
IC50 [3]: 6120 nM
IC50 of suppression of EphA4 autophosphorylation induced by mouse EphrinA1 in the hippocampal neurons [4]: 9910 nM
IC50 [5]: ~1600 nM
IC50 [6]: ~6100 nM
IC50 [7]: 1290 nM
IC50 [8]: 5290 nM
IC50 [9]: 1310 nM
B1: KYL peptide (peptide)
peptide: KYLPYWPVLSSL
notes: synthetic peptide

Kd [10]: 45.1 nM
Kd [11]: 40.4 nM
koff [12]: 0.0373 s⁻¹
kon [12]: 921000 M⁻¹ s⁻¹
IC50 [8]: 438 nM
fold activity against KYL peptide [8]: ≥ 10 fold
koff [13]: 0.042 s⁻¹
kon [13]: 931000 M⁻¹ s⁻¹
B2: antibody A-Fab (Fab, V domains shown, not shown: a dimerising Fc or GST)
VH: QIQLVQSGPELKKPGETVKISCKASGYTFTDYSMHWVKQAPGKGLKWMGWINTETGEPTYADDFKGRFAFSLETSASTAYLQINNLKNEDTATYFCARIPLYYYGSRYWYFDVWGAGTTVTVSS
VL: DIQMTQSPASLSVSVGETVTITCRASENIYRNLAWYQQKQGKSPQLLVYAATNLADGVPSRFSGSGSGTQYSLKINSLQSEDFGSYYCQHFWGTPWTFGGGTKLEIKR
notes: made by papain digestion of antibody A; also called Fab fragment of antibody A

koff [14]: 0.0333 s⁻¹
kon [14]: 629000 M⁻¹ s⁻¹
IC50 [8]: 2.9 nM
fold activity against KYL peptide [8]: ≥ 1000 fold
koff [15]: 0.000205 s⁻¹
kon [15]: 8.98e+06 M⁻¹ s⁻¹
Kd [16]: 0.0229 nM
Kd [17]: 0.053 nM
B3: antibody A-F(ab')2 (other, not shown: a dimerising Fc or GST)
heavy: B2 VH
light: DIQMTQSPASLSVSVGETVTITCRASENIYRNLAWYQQKQGKSPQLLVYAATNLADGVPSRFSGSGSGTQYSLKINSLQSEDFGSYYCQHFWGTPWTFGGGTKLEIKRADAAPTVSIFPPSSEQLTSGGASVVCFLNNFYPKDINVKWKIDGSERQNGVLNSWTDQDSKDSTYSMSSTLTLTKDEYERHNSYTCEATHKTSTSPIVKSFNRNEC
notes: made by pepsin digestion of antibody A; also called F(ab')2 fragment of antibody A
